Assay results: patent publication US20230265198A1 (TWIST BIOSCIENCE, published 2023)

The binders below were run against T1, neuropilin-1 (NRP1) on HEK293 cells overexpressing NRP1 (UniProt O14786 22-923, limits assumed) (assay: flow cytometry, HEK293-NRP1 vs HEK293).
T1 construct: whole, on cells

| 100 nM FACS (MFI Ratio) | Binder |
| --- | --- |
| 13.4 | NRP1-3 (VHH) VHH: EVQLVESGGGLVQPGGSLRLSCAASGEPTFSSVAMGWFRQAPGKEREWVAEIYPSGSTVYADSVKGRFTISADNSKNTAYLQMNSLKPEDTAVYYCAKTNWNDWGAFDIWGQGTLVTVSS |
| 3 | NRP1-270 (antibody, IgG2, V domains shown) VH: EVQLLESGGGLVQPGGSLRLSCAASGFTFSIYAMGWVRQAPGKGLEWVSSISGRGGSIYYADSVKGRFTISRDNSKNTLYLQMNSLRAEDTAVYYCARSAGTFDYWGQGTLVTVSS VL: DIQMTQSPSSLSASVGDRVTITCRASQSIRSHLNWYQQKPGKAPKLLIYAASSVESGVPSRFSGSGSGTDFTLTISSLQPEDFATYYCQQSYSAPLTFGGGTKVEIK |
| 1.3 | NRP1-285 (antibody, IgG2, V domains shown) VH: EVQLLESGGGLVQPGGSLRLSCAASGFTLSNYGMSWVRQAPGKGLEWVSTISGSGSGTYYADSVKGRFTISRDNSKNTLYLQMNSLRAEDTAVYYCARAGKAFDYWGQGTLVTVSS VL: DIQMTQSPSSLSASVGDRVTITCRASQSVSSYLSWYQQKPGKAPKLLIYAATSLESGVPSRFSGSGSGTDFTLTISSLQPEDFATYYCQQSYRTPLTFGGGTKVEIK |
| 1 | NRP1-274 (antibody, IgG2, V domains shown) VH: EVQLLESGGGLVQPGGSLRLSCAASGFTFSKYAMNWVRQAPGKGLEWVSTISGSGGSTSYADSVKGRFTISRDNSKNTLYLQMNSLRAEDTAVYYCARGQDIKRNVMRRGGRLNWFDPWGQGTLVTVSS VL: DIQMTQSPSSLSASVGDRVTITCRASQSIGSNLNWYQQKPGKAPKLLIYGATNLQSGVPSRFSGSGSGTDFTLTISSLQPEDFATYYCQQSYRTPLTFGGGTKVEIK |
| 0.4 | NRP1-287 (antibody, IgG2, V domains shown) VH: EVQLLESGGGLVQPGGSLRLYCAASGFTFGSYGMSWVRQAPGKGLEWVSSISGSGGSTYYTDSVKGRFTISRDNSKNTLYLQMNSLRAEDTAVYYCARDLARGTMPRGVIIPHNWFDPWGQGTLVTVSS VL: DIQMTQSPSSLSASVGDRVTITCRASQTISNYVNWYQQKPGKAPKLLIYAASSLHAGVPSRFSGSGSGTDFTLTISSLQPEDFATYYCQQGYSTPLTFGGGTKVEIK |
| 1.4 | NRP1-286 (antibody, IgG2, V domains shown) VH: EVQLLESGGGLVQPGGSLRLSCAASGFTLSAYAMNWVRQAPGKGLEWVSSISGSGGATYYADSVKGRFTISRDNSKNTLYLQMNSLRAEDTAVYYCARVMKTTRRIVGRRLRKGDGLDVWGQGTLVTVSS VL: DIQMTQSPSSLSASVGDRVTITCRASQSIRNNLSWYQQKPGKAPKLLIYAASSLQTGVPSRFSGSGSGTDFTLTISSLQPEDFATYYCQQSFTIPRTFGGGTKVEIK |
| 0.9 | NRP1-289 (antibody, IgG2, V domains shown) VH: EVQLLESGGGLVQPGGSLRLSCAASGFTISSSAMGWVRQAPGKGLEWVSALSGSGGSKYYADSVKGRFTISRDNSKNTLYLQMNSLRAEDTAVYYCAKEALPRASRRAAAVRYFHHWGQGTLVTVSS VL: DIQMTQSPSSLSASVGDRVTITCRASQNIVRYLNWYQQKPGKAPKLLIYTASNLQTGVPSRFSGSGSGTDFTLTISSLQPEDFATYYCQESYSRTFGGGTKVEIK |
| 50.9 | NRP1-20 (VHH) VHH: EVQLVESGGGLVQPGGSLRLSCAASGSTFSLFAMGWFRQAPGKEREFVAAISRSGGLTSYADSVKGRFTISADNSKNTAYLQMNSLKPEDTAVYYCAKAAGDWTYDEDYYYMDVWGQGTLVTVSS |
| 33 | NRP1-28 (VHH) VHH: EVQLVESGGGLVQPGGSLRLSCAASGFTRSYYTMGWFRQAPGKEREFVAAMNWSGSSTVYADSVKGRFTISADNSKNTAYLQMNSLKPEDTAVYYCAKDTGSPKNYYYYYGMDVWGQGTLVTVSS |
| 2.6 | NRP1-276 (antibody, IgG2, V domains shown) VH: EVQLLESGGGLVQPGGSLRLSCAASGFPFTSYAMSWVRQAPGKGLEWVSAISSSGTGTYYADSVKGRFTISRDNSKNTLYLQMNSLRAEDTAVYYCARLKRGGTNLVRKATRYQFYGMDAWGQGTLVTVSS VL: DIQMTQSPSSLSASVGDRVTITCRASQSVSRYLNWYQQKPGKAPKLLIYGASTLQAGVPSRFSGSGSGTDFTLTISSLQPEDFATYYCQQSYTTPLTFGGGTKVEIK |
| 0.4 | NRP1-292 (antibody, IgG2, V domains shown) VH: EVQLLESGGGLVQPGGSLRLSCAASGFTLSSYAMAWVRQAPGKGLEWVSAIRGSGGTTYYADSVKGRFTISRDNSKNTLYLQMNSLRAEDTAVYYCARRGRAPRMVRGVVNRRPYYFDYWGQGTLVTVSS VL: DIQMTQSPSSLSASVGDRVTITCRTSQSIATYLNWYQQKPGKAPKLLIYGASRSQSGVPSRFSGSGSGTDFTLTISSLQPEDFATYYCQQSYFTPPTFGGGTKVEIK |
| 2.5 | NRP1-299 (antibody, IgG2, V domains shown) VH: EVQLLESGGGLVQPGGSLRLSCAASGFTFRRYAMSWVRQAPGKGLEWVATISGSGGSTYYADSVKGRFTISRDNSKNTLYLQMNSLRAEDTAVYYCARGGNGSNRRPSLLPRNRAAAIGFESAFDVWGQGTLVTVSS VL: DIQMTQSPSSLSASVGDRVTITCRASQTIANYLNWYQQKPGKAPKLLIYRASRLQSGVPSRFSGSGSGTDFTLTISSLQPEDFATYYCQQSYNTPYTFGGGTKVEIK |
| 3 | NRP1-278 (antibody, IgG2, V domains shown) VH: EVQLLESGGGLVQPGGSLRLSCAASGFTFRRYAMSWVRQAPGKGLEWVSAISGSGDRTYYADSVKGRFTISRDNSKNTLYLQMNSLRAEDTAVYYCARDRGLRYFDWSFDYWGQGTLVTVSS VL: DIQMTQSPSSLSASVGDRVTITCRTSQSISSYLNWYQQKPGKAPKLLIYAAAGLRGGVPSRFSGSGSGTDFTLTISSLQPEDFATYYCQQSFTTPWTFGGGTKVEIK |
| 0.6 | NRP1-290 (antibody, IgG2, V domains shown) VH: EVQLLESGGGLVQPGGSLRLSCAASGFTFRNYAMTWVRQAPGKGLEWVSGISGSGGSTYYSDSVKGRFTISRDNSKNTLYLQMNSLRAEDTAVYYCARGRRGMPTPDTVRKMSKSHLYFDSWGQGTLVTVSS VL: DIQMTQSPSSLSASVGDRVTITCRTSQSISRYLNWYQQKPGKAPKLLIYGASTLQSGVPSRFSGSGSGTDFTLTISSLQPEDFATYYCQQNYIIPWTFGGGTKVEIK |
| 1 | NRP1-21 (VHH) VHH: EVQLVESGGGLVQPGGSLRLSCAASGRSRYGMGWFRQAPGKEREFVAAITRSGKTTYYADSVKGRFTISADNSKNTAYLQMNSLKPEDTAVYYCARRLLSGSPSRSYYFDYWGQGTLVTVSS |
| 1.4 | NRP1-281 (antibody, IgG2, V domains shown) VH: EVQLLESGGGLVQPGGSLRLSCAASGFTFRSLAVSWVRQAPGKGLEWVSTITGSGGATYYADSVKGRFTISRDNSKNTLYLQMNSLRAEDTAVYYCVRALAGRRDHWGQGTLVTVSS VL: DIQMTQSPSSLSASVGDRVTITCRASQSIRTSLNWYQQKPGKAPKLLIYAASALHSGVPSRFSGSGSGTDFTLTISSLQPEDFATYYCQQSYSTLPITFGGGTKVEIK |
| 26 | NRP1-29 (VHH) VHH: EVQLVESGGGLVQPGGSLRLSCAASGFTLDNYAMGWFRQAPGKEREFVARITSGGDTTYYADSVKGRFTISADNSKNTAYLQMNSLKPEDTAVYYCARAYGRGTYDWGQGTLVTVSS |
| 6.4 | NRP1-24 (VHH) VHH: EVQLVESGGGLVQPGGSLRLSCAASGFKFNDSYMGWFRQAPGKEREFVATIWWTFDAPYYADSVKGRFTISADNSKNTAYLQMNSLKPEDTAVYYCAVKERSTGWDFAWGQGTLVTVSS |
| 420 | NRP1-19 (VHH) VHH: EVQLVESGGGLVQPGGSLRLSCAASGIAFRIRTMGWFRQAPGKEREFVAGISRSGASTAYADSVKGRFTISADNSKNTAYLQMNSLKPEDTAVYYCTTDRWYSSNWWGQGTLVTVSS |
| 2.1 | NRP1-268 (antibody, IgG2, V domains shown) VH: EVQLLESGGGLVQPGGSLRLSCAASGFIFSTYALSWVRQAPGKGLEWVSGINGSGASTYYADSVKGRFTISRDNSKNTLYLQMNSLRAEDTAVYYCAREGQGWTSLLPRPSQRRPQRRPPYYGLDVWGQGTLVTVSS VL: DIQMTQSPSSLSASVGDRVTITCRGSQSITRFLNWYQQKPGKAPKLLIYATSRLQSGVPSRFSGSGSGTDFTLTISSLQPEDFATYYCQQSHSFPRTFGGGTKVEIK |
| 0.7 | NRP1-279 (antibody, IgG2, V domains shown) VH: EVQLLESGGGLVQPGGSLRLSCAASGFTFSRHAMSWVRQAPGKGLEWVSGISGSGGRTHYADSVKGRFTISRDNSKNTLYLQMNSLRAEDTAVYYCARDPSTIAARRANHYYMDVWGQGTLVTVSS VL: DIQMTQSPSSLSASVGDRVTITCRTSQSISNFLNWYQQKPGKAPKLLIYRASTLQTGVPSRFSGSGSGTDFTLTISSLQPEDFATYYCQQSYKTPRTFGGGTKVEIK |
| 3.9 | NRP1-288 (antibody, IgG2, V domains shown) VH: EVQLLESGGGLVQPGGSLRLSCAASGFTFSTFAMSWVRQAPGKGLEWVSTISGSGTSTYYADSVKGRFTISRDNSKNTLYLQMNSLRAEDTAVYYCARFPGDRGYYHYYMDVWGQGTLVTVSS VL: DIQMTQSPSSLSASVGDRVTITCRASQSIARYLNWYQQKPGKAPKLLIYRASRLQSGVPSRFSGSGSGTDFALTISSLQPEDFATYYCQQSFSPPFTFGGGTKVEIK |
| 1 | NRP1-284 (antibody, IgG2, V domains shown) VH: EVQLLESGGGLVQPGGSLRLSCAASGFTFSSSAMNWVRQAPGKGLEWVSAITSSGGSTYYADSVKGRFTISRDNSKNTLYLQMNSLRAEDTAVYYCARVTKMSPRSVGRRLRKGDGLDVWGQGTLVTVSS VL: DIQMTQSPSSLSASVGDRVTITCRASQSISRSLSWYQQKPGKAPKLLIYSASRLQSGVPSRFSGSGSGTDFTLTISSLQPEDFATYYCLQSYSSPRTFGGGTKVEIK |
| 0.9 | NRP1-26 (VHH) VHH: EVQLVESGGGLVQPGGSLRLSCAASGRTFRPYRMGWFRQAPGKEREWISTIYSNGHTYYADSVKGRFTISADNSKNTAYLQMNSLKPEDTAVYYCAAQRRWSQDWGQGTLVTVSS |
